According to PMC4678811, “Assembly and dynamics of the U4/U6 di-snRNP by single-molecule FRET” (Nucleic Acids Research, 2015):

Legend:
Assay in all cases: EMSA
[1] = test system: LSm2-LSm8 complex;Snu13 (Saccharomyces cerevisiae;Saccharomyces cerevisiae); conditions: LSm titrated; Snu13 prebound; apparent; Hill 3.3; EMSA: 2 nM RNA, 10 mM K-HEPES pH 7.5, 100 mM KCl, 0.01% NP-40, 20 ug E. coli tRNA in 100 ul, on ice 60 min, 4% native gel 0.5X TBE 4 C; smFRET: 10 mM Tris-HCl …
[2] = test system: LSm2-LSm8 complex;Snu13;Prp31 (Saccharomyces cerevisiae;Saccharomyces cerevisiae;Saccharomyces cerevisiae); conditions: LSm titrated; Snu13, Prp31 prebound; apparent; Hill 1; EMSA: 2 nM RNA, 10 mM K-HEPES pH 7.5, 100 mM KCl, 0.01% NP-40, 20 ug E. coli tRNA in 100 ul, on ice 60 min, 4% native gel 0.5X TBE 4 C; smFRET: 10 mM Tris-HCl …
[3] = test system: LSm2-LSm8 complex;Snu13;Prp31;Sm protein complex (SmB, D1, D2, D3, E, F, G) (Saccharomyces cerevisiae;Saccharomyces cerevisiae;Saccharomyces cerevisiae;Saccharomyces cerevisiae); conditions: LSm titrated; Snu13, Prp31, Sm prebound; apparent; Hill 1; text prints 152; EMSA: 2 nM RNA, 10 mM K-HEPES pH 7.5, 100 mM KCl, 0.01% NP-40, 20 ug E. coli tRNA in 100 ul, on ice 60 min, 4% native gel 0.5X TBE 4 C; smFRET: 10 mM Tris-HCl …
[4] = test system: Prp3/4 (Prp3-Prp4 complex);Snu13 (Saccharomyces cerevisiae;Saccharomyces cerevisiae); conditions: Prp3/4 titrated; Snu13 prebound; apparent; Hill 3.4; EMSA: 2 nM RNA, 10 mM K-HEPES pH 7.5, 100 mM KCl, 0.01% NP-40, 20 ug E. coli tRNA in 100 ul, on ice 60 min, 4% native gel 0.5X TBE 4 C; smFRET: 10 mM Tris-HCl …
[5] = test system: Prp3/4 (Prp3-Prp4 complex);Snu13;Prp31 (Saccharomyces cerevisiae;Saccharomyces cerevisiae;Saccharomyces cerevisiae); conditions: Prp3/4 titrated; Snu13, Prp31 prebound; apparent; Hill 1.5; EMSA: 2 nM RNA, 10 mM K-HEPES pH 7.5, 100 mM KCl, 0.01% NP-40, 20 ug E. coli tRNA in 100 ul, on ice 60 min, 4% native gel 0.5X TBE 4 C; smFRET: 10 mM Tris-HCl …
[6] = test system: Prp3/4 (Prp3-Prp4 complex);Snu13;Prp31;Sm protein complex (SmB, D1, D2, D3, E, F, G) (Saccharomyces cerevisiae;Saccharomyces cerevisiae;Saccharomyces cerevisiae;Saccharomyces cerevisiae); conditions: Prp3/4 titrated; Snu13, Prp31, Sm prebound; apparent; Hill 1; EMSA: 2 nM RNA, 10 mM K-HEPES pH 7.5, 100 mM KCl, 0.01% NP-40, 20 ug E. coli tRNA in 100 ul, on ice 60 min, 4% native gel 0.5X TBE 4 C; smFRET: 10 mM Tris-HCl …
[7] = test system: Prp3/4 (Prp3-Prp4 complex);Snu13;Prp31;Sm protein complex (SmB, D1, D2, D3, E, F, G);LSm2-LSm8 complex (Saccharomyces cerevisiae;Saccharomyces cerevisiae;Saccharomyces cerevisiae;Saccharomyces cerevisiae;Saccharomyces cerevisiae); conditions: EMSA: 2 nM RNA, 10 mM K-HEPES pH 7.5, 100 mM KCl, 0.01% NP-40, 20 ug E. coli tRNA in 100 ul, on ice 60 min, 4% native gel 0.5X TBE 4 C; smFRET: 10 mM Tris-HCl …
[8] = test system: Prp31;Snu13 (Saccharomyces cerevisiae;Saccharomyces cerevisiae); conditions: Prp31 titrated; Snu13 prebound; apparent; Hill 2.9; EMSA: 2 nM RNA, 10 mM K-HEPES pH 7.5, 100 mM KCl, 0.01% NP-40, 20 ug E. coli tRNA in 100 ul, on ice 60 min, 4% native gel 0.5X TBE 4 C; smFRET: 10 mM Tris-HCl …
[9] = test system: Sm protein complex (SmB, D1, D2, D3, E, F, G);Snu13 (Saccharomyces cerevisiae;Saccharomyces cerevisiae); conditions: Sm titrated; Snu13 prebound; apparent; Hill 2.2; EMSA: 2 nM RNA, 10 mM K-HEPES pH 7.5, 100 mM KCl, 0.01% NP-40, 20 ug E. coli tRNA in 100 ul, on ice 60 min, 4% native gel 0.5X TBE 4 C; smFRET: 10 mM Tris-HCl …
[10] = test system: Sm protein complex (SmB, D1, D2, D3, E, F, G);Snu13;Prp31 (Saccharomyces cerevisiae;Saccharomyces cerevisiae;Saccharomyces cerevisiae); conditions: Sm titrated; Snu13, Prp31 prebound; apparent; Hill 2.3; EMSA: 2 nM RNA, 10 mM K-HEPES pH 7.5, 100 mM KCl, 0.01% NP-40, 20 ug E. coli tRNA in 100 ul, on ice 60 min, 4% native gel 0.5X TBE 4 C; smFRET: 10 mM Tris-HCl …

For U4/U6 snRNA duplex (full length), the Kd [1] was 26 nM, the Kd [2] was 98 nM and the Kd [3] was 154 nM. The Kd [4] was 88 nM, the Kd [5] was 417 nM and the Kd [6] was 557 nM. The Kd [7] was 20 nM, the Kd [8] was 50 nM and the Kd [9] was 92 nM. The Kd [10] was 108 nM.
